Measured values published in patent publication US20220363757A1 (SYMPHOGEN A S, published 2022).
Substitutions are numbered along the chain they refer to.

What was measured:
Assay in all cases: SPR, Fab over captured mutant LAG-3-Fc;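 note: LAG-3 fusion proteins captured on an anti-human IgG Fc sensor chip and read on an IBIS MX96 biosensor, Fab association and dissociation each 15 min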
[1] = molecular target: T1, human LAG-3 domain 1-2 Fc fusion, chimeric construct #25 (mutated region AA 154-158) (human, UniProt P18627 23-266)
T1 construct: not shown: human IgG1 Fc, AA P101-K330
T1 chain: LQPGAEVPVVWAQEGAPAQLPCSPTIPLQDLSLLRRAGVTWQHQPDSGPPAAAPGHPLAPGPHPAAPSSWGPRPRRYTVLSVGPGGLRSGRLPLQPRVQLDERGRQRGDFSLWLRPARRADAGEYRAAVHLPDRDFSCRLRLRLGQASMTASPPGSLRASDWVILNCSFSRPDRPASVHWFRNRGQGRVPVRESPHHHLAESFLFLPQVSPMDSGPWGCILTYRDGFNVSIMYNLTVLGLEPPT

[2] = molecular target: T2, human LAG-3 domain 1-2 Fc fusion, chimeric construct #14 (mutated region AA 88-97) (human, UniProt P18627 23-266)
T2 construct: not shown: human IgG1 Fc, AA P101-K330
T2 chain: T1 chain with A66M, S69T, W70R, G71R, P72H, R73P, R75H, P132R, D135A, F136L

[3] = molecular target: T3, human LAG-3 domain 1-2 Fc fusion, chimeric construct #27 (mutated region AA 161-166) (human, UniProt P18627 23-266)
T3 construct: not shown: human IgG1 Fc, AA P101-K330
T3 chain: T1 chain with P132R, D135A, F136L, R139S, L144V

[4] = molecular target: T4, human LAG-3 domain 1-2 Fc fusion, chimeric construct #24 (mutated region AA 148-154) (human, UniProt P18627 23-266)
T4 construct: not shown: human IgG1 Fc, AA P101-K330
T4 chain: T1 chain with R126H, A128F, H130R, D135A, F136L

[5] = molecular target: T5, human LAG-3 domain 1-2 Fc fusion, chimeric construct #9 (mutated region AA 66-71) (human, UniProt P18627 23-266)
T5 construct: not shown: human IgG1 Fc, AA P101-K330
T5 chain: T1 chain with Q44R, G48D, P49Q, P132R, D135A, F136L

[6] = molecular target: T6, human LAG-3 domain 1-2 Fc fusion, chimeric construct #1 (mutated region AA 23-30) (human, UniProt P18627 31-266)
T6 construct: not shown: human IgG1 Fc, AA P101-K330
T6 sequence: T1 chain with L1S, Q2G, A5K, V7L, P8S, P132R, D135A, F136L

[7] = molecular target: T7, human LAG-3 domain 1-2 Fc fusion, chimeric construct #3 (mutated region AA 40-41) (human, UniProt P18627 23-266)
T7 construct: not shown: human IgG1 Fc, AA P101-K330
T7 chain: T1 chain with A18V, Q19H, P132R, D135A, F136L

[8] = molecular target: T8, human LAG-3 domain 1-2 Fc fusion, chimeric construct #6 (mutated region AA 48-55) (human, UniProt P18627 23-266)
T8 construct: not shown: human IgG1 Fc, AA P101-K330
T8 chain: T1 chain with I26F, L28H, Q29L, L31P, S32N, L33F, P132R, D135A, F136L

[9] = molecular target: T9, human LAG-3 domain 1-2 Fc fusion, chimeric construct #22 (mutated region AA 140-142) (human, UniProt P18627 23-266)
T9 construct: not shown: human IgG1 Fc, AA P101-K330
T9 chain: T1 chain with R118T, A120K, P132R, D135A, F136L

B1: Fab fragment of antibody 15572 (Fab, V domains shown, not shown: a dimerising Fc or GST)
VH: QLQLQESGPGLVKPSETLSLTCTVSGDSISSSSYYWGWIRQPPGKGLEWIGSIFYSGNTYYNPSLKSRVTISVDTSKNQFSLKLSSVTAADTAVYYCAREDDFLTDYYGAFDIWGQGTMVTVSS
VL: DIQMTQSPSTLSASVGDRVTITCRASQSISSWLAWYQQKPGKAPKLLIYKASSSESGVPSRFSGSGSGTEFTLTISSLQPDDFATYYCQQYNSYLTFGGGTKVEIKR
notes: monomeric Fab made by GingisKHAN digestion of the IgG1
[1]
  binding result: no binding (tested: 300 nM)
[2]
  KD mutant/KD wild type: 0.7 fold
[3]
  KD mutant/KD wild type: 1.7 fold
[4]
  binding result: no binding (tested: 300 nM)
[5]
  KD mutant/KD wild type: 1.1 fold
[6]
  binding result: no binding (tested: 300 nM)
[7]
  binding result: no binding (tested: 300 nM)
[8]
  binding result: no binding (tested: 300 nM)
[9]
  KD mutant/KD wild type: 0.8 fold

B2: Fab fragment of antibody 15532 (Fab, V domains shown, not shown: a dimerising Fc or GST)
VH: QVQLQQWGAGLLRPSETLSLTCAVYGESFSGYYWNWIRQPPGKGLEWIGEINHSGSTNYNPSLKSRVTISVDTSKTQFSLKLSSVTAADTAVYYCARGWDLLDWNDYWNEYWGQGTLVTVSS
VL: EIVLTQSPATLSLSPGERATLSCRASQSVSSYLAWYQQKPGQAPRLLIYDASNRATGIPARFSGSGSGTDFTLTISSLEPEDFAVYYCQQRSNWPLTFGGGTKVEIKR
notes: as for B1
[1]
  KD mutant/KD wild type: 1.1 fold
[2]
  binding result: no binding (tested: 300 nM)
[3]
  KD mutant/KD wild type: 0.8 fold
[4]
  KD mutant/KD wild type: 2.6 fold
[5]
  KD mutant/KD wild type: 3.9 fold
[6]
  KD mutant/KD wild type: 3.2 fold
[7]
  KD mutant/KD wild type: 2.2 fold
[8]
  KD mutant/KD wild type: 3.4 fold
[9]
  KD mutant/KD wild type: 1.3 fold

B3: Fab fragment of antibody 15431 (Fab, V domains shown, not shown: a dimerising Fc or GST)
VH: QVQLQQSGPGLVKPSQTLSLTCAISGDSVSSNSAAWNWIRQSPSRGLEWLGRTYYRSKWYNDYAVSVKSRITINPDTSKNQFSLQLNSVTPEDTAVYYCARDDDWNDFDYWGQGTLVTVSS
VL: B2 VL
notes: as for B1
[1]
  KD mutant/KD wild type: 0.8 fold
[2]
  binding result: no binding (tested: 300 nM)
[3]
  KD mutant/KD wild type: 1.3 fold
[4]
  KD mutant/KD wild type: 10.6 fold
[5]
  KD mutant/KD wild type: 0.4 fold
[6]
  binding result: no binding (tested: 300 nM)
[7]
  binding result: no binding (tested: 300 nM)
[8]
  binding result: no binding (tested: 300 nM)
[9]
  KD mutant/KD wild type: 0.6 fold

B4: Fab fragment of antibody 15011 (Fab, V domains shown, not shown: a dimerising Fc or GST)
VH: EVQLLESGGGLVQPGGSLRLSCAASGFDFRSYAMMWVRQAPGKGLEWVGGINGEVGGSNTYYAPAVKGRATISRDNSKNTLYLQMNSLRAEDTAVYYCVKGAGACGICNDDIDAWGQGTLVTVSS
VL: SYELTQDPAVSVALGQTVRITCSGAGSYAGSYYYGWHQQKPGQAPVTVIYDNDKRPSNIPDRFSGSSSGNTASLTITGAQAEDEADYYCGSTNDNDDGGLFGSGTKVTVLG
notes: as for B1
[1]
  KD mutant/KD wild type: 1.9 fold
[2]
  KD mutant/KD wild type: 0.6 fold
[3]
  KD mutant/KD wild type: 2.3 fold
[4]
  KD mutant/KD wild type: 1.9 fold
[5]
  KD mutant/KD wild type: 0.7 fold
[6]
  KD mutant/KD wild type: 0.5 fold
[7]
  KD mutant/KD wild type: 0.5 fold
[8]
  KD mutant/KD wild type: 0.5 fold
[9]
  KD mutant/KD wild type: 0.5 fold
